US20170173114A1, “METHODS AND COMPOSITIONS FOR INDUCTION OF UCP1 EXPRESSION” (Joslin Diabetes Center, Inc., priority 2014, published 2017)

System: WT-1 murine brown preadipocytes
Test: Oil Red O staining of lipid accumulation in WT-1 cells
Assay type: cell-based
Conditions: WT-1, absence of induction cocktail
Method: Cell culture dishes were washed twice with phosphate-buffered saline and fixed with 10% buffered formalin overnight at 4° C. Cells were then stained for 2 hours at room temperature with a filtered oil red O solution (0.5% oil red O in isopropyl alcohol), washed twice with distilled water, and visualized.
The effect of FGF6 on differentiation of WT-1 murine brown preadipocytes was also examined. WT-1 cells can be induced to undergo brown adipocyte differentiation, characterized by lipid accumulation and expression of adipogenic and brown fat markers, as described above (Klein et al. (1999) J Biol Chem 274:34795; Tseng et al. (2005) Nat Cell Biol 7:601). WT-1 cells were treated with FGF6 in growth media (DMEM+10% FBS), a vehicle control (“control” or “C” referred to in FIGS. 3A-D), or induction media (“induction” or “I” referred to in FIGS. 3A-D) as described above for seven days. Following the treatment, cells were examined for the color of the culture media in combination with oil Red O staining, expression of adipogenic markers, expression of brown fat markers, immunofluorescent staining of cells with UCP1 and DPAI, and Western blot analysis to determine the presence of UCP1 and β-tubulin. The results are described in FIGS. 3A to 3D.

B1: FGF6: fibroblast growth factor 6; recombinant human FGF from R&D Systems, or mouse FGF6 cDNA overexpressed by lentiviral vector (protein)
chain: KRQRRLYCNVGIGFHLQVLPDGRISGTHEENPYSLLEISTVERGVVSLFGVRSALFVAMNSKGRLYATPSFQEECKFRETLLPNNYNAYESDLYQGTYIALSKYGRVKRGSKVSPIMTVTHFLPRI
In the case of B1, the “lipid accumulation by Oil Red O staining” value is reported as “very little to no lipid accumulation”.
